Laboratory results reported in US20220195388A1.

Experiments:
[1] = target: CD28 on the surface of PBMCs and T cells (human) (UniProt P10747); experiment: flow cytometry, selected CD28+ cells after D-biotin and washing, stained with an α-Ig kappa light chain mAb to detect remaining Fab monomers; live CD3+ cells. The same mAb on cells before selection (negative control, no Fab) gives 2.73 in the gate.
[2] = target: CD3 (TCR/CD3 complex) on the surface of Jurkat cells, PBMCs and T responder cells (UniProt P07766); experiment: flow cytometry, freshly isolated PBMCs stained with PE-labeled OKT3 Fab-multimers, before D-biotin; only live (PI negative) cells shown
[3] = target: CD3 (TCR/CD3 complex) on the surface of Jurkat cells, PBMCs and T responder cells (UniProt P07766); experiment: flow cytometry, second staining with PE-labeled OKT3 Fab-multimers of PBMCs that had been stained, treated with D-biotin and washed (control); live cells
[4] = target: CD3 (TCR/CD3 complex) on the surface of Jurkat cells, PBMCs and T responder cells (UniProt P07766); experiment: flow cytometry, PBMCs stained with PE-labeled OKT3 Fab-multimers and then treated with D-biotin, which disrupts the Fab to Strep-Tactin bond; remaining PE signal on live cells
[5] = target: CD28 on the surface of PBMCs and T cells (human) (UniProt P10747); experiment: flow cytometry, freshly isolated PBMCs before selection stained with fluorescent αCD28 Fab-multimers; only live (PI negative) CD3+ cells shown
[6] = target: CD28 on the surface of PBMCs and T cells (human) (UniProt P10747); experiment: flow cytometry, CD28+ cells isolated by Fab-multimer magnetic selection, released with D-biotin, washed and stained again with CD28 Fab-multimers; live CD3+ cells

CD3 (TCR/CD3 complex) on the surface of Jurkat cells, PBMCs and T responder cells, sequence (P07766 23-207, one chain of several): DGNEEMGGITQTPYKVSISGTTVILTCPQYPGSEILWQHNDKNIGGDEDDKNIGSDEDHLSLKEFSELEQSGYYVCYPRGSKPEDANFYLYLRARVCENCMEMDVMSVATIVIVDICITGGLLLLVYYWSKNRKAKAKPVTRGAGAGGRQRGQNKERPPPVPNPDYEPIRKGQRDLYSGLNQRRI

Substance: αCD28 Fab fragment derived from the monoclonal anti-human CD28 antibody CD28.3, heavy chain C-terminally fused to the Twin-Strep-tag (monomeric)
- percentage of cells within gate [1]: 5.91%

Substance: OKT3 Fab fragments multimerized with Strep-Tactin
- percentage of cells within gate [2]: 64.5%
- percentage of cells within gate [3]: 64.7%
- percentage of cells within gate [4]: 0.005%

Substance: anti-CD28 Fab fragments (from CD28.3) multimerized with Strep-Tactin (from UniProt P22629 38-163)
- percentage of cells within gate [5]: 77.9%
- percentage of cells within gate [6]: 96.7%
